Experiment [1] concerns the target T1, human CD70 expressed on the cell surface of tumor cell lines (human, UniProt P32970 1-193).
T1 construct: whole, on cells
T1 sequence (looked up): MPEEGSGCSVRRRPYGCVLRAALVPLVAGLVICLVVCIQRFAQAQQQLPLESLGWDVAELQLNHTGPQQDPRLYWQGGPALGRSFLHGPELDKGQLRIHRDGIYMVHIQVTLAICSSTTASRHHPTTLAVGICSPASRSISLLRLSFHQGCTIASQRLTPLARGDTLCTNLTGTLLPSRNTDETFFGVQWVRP
Put plainly: flow cytometry on Raji cells, PE anti-human Fc, MFI(PE); the text gives this EC50 only as about 19 nM. The procedure:
Binding activity of 2E7 or the isotype control with a target cell line (Raji) or a cell line (MCF-7) that has negligible level of CD70 expression were evaluated by flow cytometry (Beckman, Cytoflex). 3×10⁵ cells per well were seeded on a 96-well V-bottomed plate and incubated with 100 μl of 2E7 in serial dilutions. After 30 min incubation at 4° C., cells were washed twice with PBS, stained with 100 μl of 1:200 diluted PE-conjugated anti-human Fc in FACS buffer (1×PBS containing 1% BSA), then incubated at 4° C. for 30 min. Cells were finally washed two times with PBS and analyzed by flow cytometric analysis.
A general note: A flow cytometer gives signals particle by particle.

Experiment [2] addresses T1, human CD70 expressed on the cell …. The experiment in a line: flow cytometry on Caki-1 cells. The protocol: (§1) The lead antibodies were tested for binding to renal carcinoma cells and glioblastoma cells expressing CD70 on the cell surface by flow cytometry. […] U251 cells were cultured with MEM medium containing of 10% FBS and 1% NEAA+1 mM sodium pyruvate. DBTRG-05MG cells were cultured with DMEM medium (Gibco, Cat #C11995500BT) containing of 10% FBS. Each of the lead antibodies and the controls were incubated for 30 mins with the different cell lines (3×10⁵ cells per well) in 0.2 ml FACS buffer (1×PBS with 0.1% BSA) at 4° C. Then, the cells were pelleted, washed, and incubated at 4° C. for 30 mins with 100 μl of 1:200 diluted PE-conjugated anti human Fc (Abcam, Ab98596) in FACS buffer. The cells were pelleted again, washed with PBS, resuspended in FACS buffer and analyzed by flow cytometer (Beckman, CytoFLEX).
(§2) Antibodies 2H8 and 2D2 had slightly higher binding ability to the cell lines than that of antibody 69A7.

In experiment [3] the target is T2, cynomolgus CD70 recombinant protein (cynomolgus, UniProt A0A2K5WTU9 39-190).
T2 construct: also called cyno-antigen; cynomolgus CD70 protein
T2 sequence: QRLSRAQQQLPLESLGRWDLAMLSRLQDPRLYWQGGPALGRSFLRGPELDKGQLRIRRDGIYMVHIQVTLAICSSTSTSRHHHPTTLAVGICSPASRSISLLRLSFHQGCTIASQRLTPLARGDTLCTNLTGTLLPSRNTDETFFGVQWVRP
The experiment in a line: ELISA, IgG titrated on coated cynomolgus CD70 recombinant protein (2 µg/ml), anti-human Fc-HRP, OD450. The procedure: The binding specificity of the CD70 antibodies was tested by ELISA according to a standard protocol. Briefly, 96-well micro-plates were coated with 2 μg/ml of human or cynomolgus CD70 recombinant protein in PBS at 100 μl per well and incubated overnight at 4° C. The plates were washed twice with TBS+0.5% Tween20. 200 μL of blocking buffer (2% BSA in PBS) was added to each well, and the plates were incubated at 37° C. for 2 hours. The plates were washed using the wash buffer mentioned above. Serially diluted antibodies were added to the ELISA plates using 100 μl per well, and the plates were incubated for 1 hour at room temperature. Then plates were washed 3 times. HRP conjugated anti-human Fc antibody solution (Sigma, I18885-2ML, diluted with blocking buffer) was added to the plates using 100 μl per well. The plates were incubated at room temperature for 1 hour and then washed 3 times. Then the TMB solution was added to plates using 100 μl per well and the plates were placed at RT for 5-15 mins. Then the stop solution (2M H2SO4) was added using 50 μl per well. The absorbance was measured at A450 and A630.
Background: In an ELISA, binding on a coated surface is turned into a signal by an enzyme label.

Experiment [4] concerns the target T3, cyno CD70 recombinant ECD protein (cyno).
T3 construct: extracellular domain; The sentence on the purchase names human, rat and mouse ECD-His only
Put plainly: BLI, global 1:1 fit over 200-3.13 nM; cell repeated in each concentration row. A general note: In BLI a coated tip is dipped into the sample, and binding shifts an interference pattern.

Experiment [5] has as its target T4, human CD70 extra-cellular domain (ECD) linked to His tag (human, UniProt P32970 39-193).
T4 construct: extracellular domain; also called Hu CD70; HU CD70; not shown: His tag
T4 sequence (looked up): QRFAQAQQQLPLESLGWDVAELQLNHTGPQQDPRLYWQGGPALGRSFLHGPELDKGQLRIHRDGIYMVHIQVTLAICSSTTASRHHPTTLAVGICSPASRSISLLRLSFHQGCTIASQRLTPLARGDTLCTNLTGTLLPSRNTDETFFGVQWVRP
The description is as above.

The target in experiment [6] is T1, human CD70 expressed on the cell …. The experiment in a line: flow cytometry on 786-O cells, PE anti-human Fc, MFI; same fit as Table 6, which prints it in nM. The procedure: as §1, §2
For experiment [7], the target named is T4, human CD70 extra-cellular domain (ECD) …. Put plainly: BLI (Octet RED), antibody on anti-human Fc tips, CD70 ECD-His at 100 nM. The procedure:
Recombinant proteins consisting of human, rat, or mouse CD70 extra-cellular domain (ECD) linked to His tag was purchased (from ACRO systems). 69A7 and 2E7 (20 nM) were immobilized on anti-human IgG Fc biosensor tips (ForteBio). Binding assays using one concentration (100 nM) of recombinant protein in solution were performed using Octet RED (ForteBio). Association time was set at 180s and dissociation time was set at 300s. Binding affinity was calculated using ForteBio Data Acquisition 6.3 software. Affinity was derived by fitting the kinetic data to a 1:1 Langmuir binding model utilizing global fitting algorithms. […] 2E7 had no cross-reactivity to rat or mouse CD70 (Table 10).

The target in experiment [8] is T1, human CD70 expressed on the cell …. Put plainly: flow cytometry on U251 cells. The procedure: as §1, §2

B1: 2E7, full IgG (antibody, V domains shown)
VH: QVQLQESGPGLVKPSETLSLTCTVSGGSVSSDYYYWSWIRQPPGKGLEWLGYIYYSGSTNYNPSLKSRVTISVDTSKNQFSLKLRSVTTADTAVYYCARGDGDFLGVCFDYWGQGTLVTVSS
VL: EIVLTQSPATLSLSPGERATLSCRASQSVSSYLAWYQQKPGQAPRLLIFDASNRATGIPARFSGSGSGTDFTLTISSLEPEDFAVYYCQQRSNWPLTFGGGTKVEIK
As usually defined, the EC50 is the concentration at which the effect is half-maximal. The term Kd denotes the equilibrium constant for the complex coming apart. For orientation: koff means a measure of how fast the partners let go of each other. As a reminder, the kon is a measure of how fast the partners come together. Consider B1, for which the EC50 was found to be 2.98 µg/mL in experiment [1]; 2.81 nM in experiment [2]; 4.01 ng/mL in experiment [3]; 0.403 µg/mL in experiment [6]; 4.03 nM in experiment [8]. In addition, the Kd in experiment [4] stood at 0.39 nM; in experiment [5] it was 0.807 nM; in experiment [7], 0.979 nM. The koff in experiment [4] amounted to 0.000241 s⁻¹; in experiment [5], 0.000254 s⁻¹; in experiment [7], 0.000357 s⁻¹. The kon in experiment [4] stood at 618000 M⁻¹ s⁻¹; in experiment [5] it was 314000 M⁻¹ s⁻¹; in experiment [7], 365000 M⁻¹ s⁻¹.

The record behind these values is patent publication US20250066490A1 (PROFOUNDBIO US, published 2025).
